The values below come from PMC5709738 (The EMBO Journal, 2017).

The chains are these.
B1: Ame1-Okp1 (K. lactis, full length) (complex, Kluyveromyces lactis)
chain 1: MDALKQRHLKLLYRQRGSASRTIDYDVVIEPELREDGDLVTDSQLTEQDDQSFPDIQVPSPDRVDDFDLNQGDGLMDKATANEDDIDHVIGDEVAAVNAPVETSDLVIDTTQFDSMTLSQLSTPLTSMATIDVLRRLLETVILVTIEERTSQFNRAGSARLRLKLKLEIKILTWFLHQSKEDLITISELNLSNNDLLYRLKQISLLKNSLSRSLLDVRSAISSYEGPNNALSEEQVALQNFKRINELILSQRIDTIINNNLPPDTSTFDTESKKGLLPTLKTLNESLQNTIG
chain 2: MSKRYLDDVLSPDTGTSDSDSSIENLNADNYRIDIVNDNARRDDIDRIQSSNLNHEPPYNLEGVFAIDDDEHGDEMVRKDSDRRQDITEDNDDSFVPDITTPPRERKRVRFGINEKGGDEEFNNVSPWDFKRLIRKFYKEQLPDTYQIRNWKRPSKDMLTNFIDLIENNIELASEEVFKQYHQELNQLYPDSEEQAKLKDSLENKVFDTTYNIKKRLKRTKVPSKIWVDNLNMEYIYAKGESIKKRYKSELDRAEAIERQLIREEEHLKSLQEKGETQAKKRKQVLSKELSELSKTMHPSLSVALSNTFGLIKDDKMSNEIYQQDKIDFNLKLKTDFSKPLISEKEENSLNGLTNAMDNNRELVNEIFGKISALLQPKKNSNE
notes: Ame1 of Kluyveromyces lactis; Okp1 of Kluyveromyces lactis; stands as the Ame1-Okp1 part of COMA; also called Okp1-Ame1; source: E. coli BL21 Rosetta 2(DE3)pLysS, co-expressed with Ctf19 and Mcm21 versions
B4: Nkp1-Nkp2 heterodimer (K. lactis) (complex, Kluyveromyces lactis)
chain 1: MDLESEIIQLVRQNIRPKFPSLNDEQQARLDNALKYDVNYDILKKELVEYIDDWKRNEYYDVLTNIGDLQRLDLGNMLNGDGVSFPKLHSDLANLPRFRLIDNENEMDQSLLHKYDSLRTRLIEKCRAIELIRSATNTDVNYQDINSMLSVVELRQWRDEIQMEWKELAQNLELILKTWPDLTEEKRSKLLQLIDSSSLKSILHIKDNIE
chain 2: MLHEVLYKHLDGILVSRLYTEDQFVDLFSRTIPESNTVIASQLYKSYEENDQRIIEKIDKLIDNKLSLIRVELEREQIEDSISLEEVNKLLHSIDDMLQQHLNQLNIELDNKNTKLLKYAMELSDIEAIDTSMYDNVAKLITDMETNQPSS
notes: Nkp1 of Kluyveromyces lactis; Nkp2 of Kluyveromyces lactis; also called NN; source: E. coli BL21 Rosetta 2(DE3)pLysS, purified

Data set [1] concerns the molecule itself. The data set can be described thus: native MS; nanoflow spectra and tandem mode with collision-induced dissociation in the gas phase (argon); subassemblies stripped of subunits.
For data set [2], the target named is B4. The data set can be described thus: SEC; Superdex 200 HiLoad 10/600 prep grade column (Appendix Fig S7B). Particulars: both partners purified. (Size exclusion chromatography separates by hydrodynamic size, large species first.)
Another data set addresses T1, Nkp1 (K. lactis) (Kluyveromyces lactis, UniProt Q6CPR4 1-210).
T1 construct: Nkp1 of Kluyveromyces lactis; also called non-essential kinetochore protein 1; HisNkp1; source: E. coli BL21 Rosetta 2(DE3)pLysS, purified
T1 sequence (looked up): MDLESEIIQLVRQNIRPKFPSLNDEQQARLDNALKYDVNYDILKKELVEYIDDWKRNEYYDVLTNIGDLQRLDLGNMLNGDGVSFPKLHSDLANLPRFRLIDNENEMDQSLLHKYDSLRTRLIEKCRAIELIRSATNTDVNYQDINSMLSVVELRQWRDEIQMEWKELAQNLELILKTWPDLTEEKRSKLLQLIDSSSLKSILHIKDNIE
The data set can be described thus: HDX-MS; purified assemblies in D2O buffer, quenched at pH ~2.5, pepsin column; exchange patterns compared between assemblies. Particulars: both partners purified.

Data set [3] addresses B1. The data set can be described thus: native MS; nanoflow spectra and tandem mode with collision-induced dissociation in the gas phase (argon); subassemblies stripped of subunits. Particulars: both partners purified.
Data set [4] concerns the target T2, COMA (K. lactis, full length: Ame1, Ctf19, Mcm21, Okp1) (Kluyveromyces lactis, UniProt Q6CUE5 1-292; Q6CRN7 1-270; Q6CVQ9 1-293; Q6CJY0 1-383).
T2 construct: Ame1 of Kluyveromyces lactis; Ctf19 of Kluyveromyces lactis; Mcm21 of Kluyveromyces lactis; Okp1 of Kluyveromyces lactis; copies: + + +
T2 sequence (looked up) 1: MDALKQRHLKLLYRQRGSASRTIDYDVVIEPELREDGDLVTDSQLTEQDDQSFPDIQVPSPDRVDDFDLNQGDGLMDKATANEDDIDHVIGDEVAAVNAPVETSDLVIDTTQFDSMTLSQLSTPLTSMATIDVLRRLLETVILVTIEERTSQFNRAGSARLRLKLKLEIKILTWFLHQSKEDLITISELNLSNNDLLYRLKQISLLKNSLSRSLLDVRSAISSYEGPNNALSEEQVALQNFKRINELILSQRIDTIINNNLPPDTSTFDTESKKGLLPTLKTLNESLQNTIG
T2 sequence (looked up) 2: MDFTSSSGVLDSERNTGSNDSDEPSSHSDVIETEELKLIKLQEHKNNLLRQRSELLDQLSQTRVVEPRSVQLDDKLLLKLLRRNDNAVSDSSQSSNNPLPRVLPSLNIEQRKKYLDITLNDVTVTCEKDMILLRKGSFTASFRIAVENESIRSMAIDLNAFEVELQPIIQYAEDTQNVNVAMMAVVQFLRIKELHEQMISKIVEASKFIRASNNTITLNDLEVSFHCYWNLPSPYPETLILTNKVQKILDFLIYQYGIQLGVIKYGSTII
T2 sequence (looked up) 3: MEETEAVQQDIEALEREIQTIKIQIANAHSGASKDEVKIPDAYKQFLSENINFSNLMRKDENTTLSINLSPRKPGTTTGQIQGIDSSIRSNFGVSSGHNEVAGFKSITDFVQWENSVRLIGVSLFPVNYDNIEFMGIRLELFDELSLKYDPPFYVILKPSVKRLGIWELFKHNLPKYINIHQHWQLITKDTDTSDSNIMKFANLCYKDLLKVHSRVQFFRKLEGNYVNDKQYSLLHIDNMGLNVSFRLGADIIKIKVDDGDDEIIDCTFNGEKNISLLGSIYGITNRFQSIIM
T2 sequence (looked up) 4: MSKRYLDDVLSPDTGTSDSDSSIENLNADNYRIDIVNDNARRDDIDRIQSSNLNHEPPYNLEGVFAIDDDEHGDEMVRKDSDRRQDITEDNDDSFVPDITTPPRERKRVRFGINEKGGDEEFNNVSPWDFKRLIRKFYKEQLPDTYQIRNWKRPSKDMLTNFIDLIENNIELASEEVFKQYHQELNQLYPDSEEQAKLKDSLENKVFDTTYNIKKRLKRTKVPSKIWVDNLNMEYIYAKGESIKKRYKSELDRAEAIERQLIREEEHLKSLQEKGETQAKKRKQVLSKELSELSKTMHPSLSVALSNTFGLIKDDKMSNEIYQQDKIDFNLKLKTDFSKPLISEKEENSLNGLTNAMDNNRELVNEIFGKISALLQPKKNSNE
Described as above. Particulars: both partners purified.

For data set [5], the target named is T2, COMA (K. lactis, full length: Ame1, …). The data set can be described thus: SEC; reconstituted K. lactis COMA-Nkp1-Nkp2; peak fractions on Coomassie-stained SDS-PAGE.
Data set [6] has as its target T3, Ctf19_D-RWD-Mcm21_D-RWD-Okp1_229-383 (K. lactis) (Kluyveromyces lactis, UniProt Q6CRN7 107-270; Q6CVQ9 108-293; Q6CJY0 229-383).
T3 construct: Ctf19 of Kluyveromyces lactis, residues 107-270; Mcm21 of Kluyveromyces lactis, residues 108-293; also called Ctf19-Mcm21-Okp1 variant that includes Okp1 segment 3; CMO; source: E. coli BL21 Rosetta 2(DE3)pLysS, co-expressed, purified; copies: + +
T3 sequence (looked up) 1: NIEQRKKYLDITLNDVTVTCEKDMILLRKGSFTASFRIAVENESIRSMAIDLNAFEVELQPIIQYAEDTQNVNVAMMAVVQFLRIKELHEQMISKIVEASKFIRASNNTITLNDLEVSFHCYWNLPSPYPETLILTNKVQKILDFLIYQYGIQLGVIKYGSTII
T3 sequence (looked up) 2: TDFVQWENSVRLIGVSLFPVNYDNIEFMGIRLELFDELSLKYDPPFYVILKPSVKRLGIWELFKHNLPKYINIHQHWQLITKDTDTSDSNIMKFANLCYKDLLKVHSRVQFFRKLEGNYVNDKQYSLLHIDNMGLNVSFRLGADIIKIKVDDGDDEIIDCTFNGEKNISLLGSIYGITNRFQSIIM
T3 sequence (looked up) 3: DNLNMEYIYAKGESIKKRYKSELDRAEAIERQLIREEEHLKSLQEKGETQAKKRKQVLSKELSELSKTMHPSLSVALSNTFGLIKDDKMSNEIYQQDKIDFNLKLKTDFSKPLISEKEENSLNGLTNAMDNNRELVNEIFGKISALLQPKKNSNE
The data set can be described thus: SEC; analytical SEC of purified K. lactis samples alone and combined, Superdex 200 10/300, 4°C; fractions on SDS-PAGE. Particulars: both partners purified.

With B1, in data set [1], the binding result is reported as “binds”.

B2: Okp1_295-383 (K. lactis) (domain or fragment, Kluyveromyces lactis, UniProt Q6CJY0 295-383, looked up)
chain: KTMHPSLSVALSNTFGLIKDDKMSNEIYQQDKIDFNLKLKTDFSKPLISEKEENSLNGLTNAMDNNRELVNEIFGKISALLQPKKNSNE
notes: source: E. coli BL21 Rosetta 2(DE3)pLysS, co-expressed with Ctf19 and Mcm21 versions, purified
As to B2, in data set [2], the binding result was “binds”.

B3: Nkp2 (K. lactis) (natural protein, Kluyveromyces lactis, UniProt Q6CSR8 1-151, looked up)
chain: MLHEVLYKHLDGILVSRLYTEDQFVDLFSRTIPESNTVIASQLYKSYEENDQRIIEKIDKLIDNKLSLIRVELEREQIEDSISLEEVNKLLHSIDDMLQQHLNQLNIELDNKNTKLLKYAMELSDIEAIDTSMYDNVAKLITDMETNQPSS
notes: Nkp2 of Kluyveromyces lactis; also called non-essential kinetochore protein 2; source: E. coli BL21 Rosetta 2(DE3)pLysS, purified
As to B3, the binding result (in the data set with Nkp1 (K. lactis); in data set [3]; in data set [4]) was “binds” each time. With B4, the binding result in data set [5] and in data set [6] was “binds” each time.
